Target: 6xHis-TLX ligand-binding domain (UniProt Q9Y466 155-385)
Sequence (Q9Y466 155-385): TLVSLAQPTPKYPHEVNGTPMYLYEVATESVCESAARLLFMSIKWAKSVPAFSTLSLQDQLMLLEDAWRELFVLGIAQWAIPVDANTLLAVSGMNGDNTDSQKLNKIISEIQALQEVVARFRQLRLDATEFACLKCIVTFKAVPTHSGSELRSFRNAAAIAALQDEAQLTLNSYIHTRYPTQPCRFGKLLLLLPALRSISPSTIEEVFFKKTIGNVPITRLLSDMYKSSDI

How did the EC50 turn out when LTERHKILHRLLQEGSPSD [NCOA1-II peptide (competitor in the ALPHA competition experiment)] was run?
Its EC50 is 3.3 µM.

Reference: article PMC9060471 (2022)
